We go through three molecules from patent publication US10234390.

The subject of data set [1] is T1, fluorogenic MMP peptide substrate [Dabcyl-Gaba-Pro-Gln-Gly-Leu-Glu(EDANS)-Ala-Lys-NH2].
T1 sequence: XXPQGLXAK

In data set [2] the target is T2, fluorogenic MMP peptide substrate [Dabcyl-Gaba-Pro-Gln-Gly-Leu-Glu(EDANS)-Ala-Lys-NH2] (not fully specified).
T2 chain: XXPQGLXAK

The target of data set [3] is T3, Sortase A substrate Dnp-LPETG-(K-FITC)-NH2.
T3 chain: LPETGK

MMP-9: the EDANS fluorescence intensity result in data set [1] was “The fluorescence intensity of EDANS cleaved by MMP-9 bound with MNP-MMP9Ab”.

B1: Recombinant human MMP-1 (R&D Systems), activated with APMA (protein)
chain: FVLTEGNPRWEQTHLTYRIENYTPDLPRADVDHAIEKAFQLWSNVTPLTFTKVSEGQADIMISFVRGDHRDNSPFDGPGGNLAHAFQPGPGIGGDAHFDEDERWTNNFREYNLHRVAAHELGHSLGLSHSTDIGALMYPSYTFSGDVQLAQDDIDGIQAIYGRSQNPVQPIGPQTPKACDSKLTFDAITTIRGEVMFFKDRFYMRTNPFYPEVELNFISVFWPQLPNGLEAAYEFADRDEVRFFKGNKYWAVQGQNVLHGYPKDIYSSFGFPRTVKHIDAALSEENTGKTYFFVANKYWRYDEYKRSMDPGYPKMIAHDFPGIGHKVDAVFMKDGFFYFFHGTRQYKFDPKTKRILTLQKANSWFNCRKN
Turning to B1, in data set [2], the “EDANS emission at 446.5 nm from peptide-functionalised pSiRM” value was “emission at 446.5 nm was observed”; the “EDANS emission under confocal microscope (microcontact-printed peptide)” value is “The lighter colour (blue) is the colour of EDANS emission confirming the cleavage of the MMP substrate”; the “EDANS fluorescence intensity at different incubation times (1.2×10^-7 M MMP-1)” value is given as “After 5 min of incubation, a significant fluorescence emission indicating the presence of MMP-1 was already detectable ... then plateaued at 15 min incubation time”; the “limit of detection (EDANS fluorescence after 15 min incubation)” value was “the calculated LOD was 7.5×10^-19 M”. In addition, the “shift of the resonance cavity dip (IRS)” value in data set [2] was “A small blue shift (Δλ=0.5 nm) observed by IRS after incubation with MMP-1”.

B2: Sortase A enzyme (protein)
chain: QAKPQIPKDKSKVAGYIEIPDADIKEPVYPGPATPEQLNRGVSFAEENESLDDQNISIAGHTFIDRPNYQFTNLKAAKKGSMVYFKVGNETRKYKMTSIRDVKPTDVGVLDEQKGKDKQLTLITCDDYNEKTGVWEKRKIFVATEVK
On to B2, for which, in data set [3], the “FITC fluorescence emission (1 µg/mL Sortase A, 30 min)” value was “the emission of FITC after the Sortase A substrate cleaved by Sortase A enzyme”; the “FITC fluorescence emission at different contact times” value is “the longer the interaction between Sortase A enzyme and Sortase A substrate the higher emission of the FITC detected ... only until 30 min contact time”; the “FITC fluorescence emission, S. aureus bacterial supernatant (1 h inoculation)” value is recorded as “about 47.26 a.u”; the “FITC fluorescence intensity, 1×10^-4 µg/mL Sortase A in buffer solution” value worked out at 100.2±22.7 a.u. Moreover, in data set [3], the “FITC fluorescence intensity, wound fluid spiked with 1×10^-4 µg/mL Sortase A, 30 min” value was “about 82.34 a.u”; the “FITC fluorescence signal at different Sortase A concentrations” value is “this sensing platform still had an obvious signal down to fg/mL of Sortase A concentration”; the “increase of FITC fluorescence intensity on spiking the bacterial supernatant with Sortase A enzyme” value is listed as “increased the fluorescence intensity about 112.19 a.u”.
